{"source": "paper PMC7809101", "about": "“Fetal bovine serum albumin inhibits antimicrobial peptide activity and binds drug only in complex with α1-antitrypsin” (Scientific Reports, 2021)", "key": {"fetal bovine serum (FBS)": {"test_system": "fetal bovine serum (FBS)", "assay": "Band shift of AMPs by fetal bovine serum", "format": "binding", "details": "10–40% FBS; AMP 4 μg; PC buffer, room temperature, 30 min; horizontal native 8% PAGE", "description": "(§1) Various AMPs (4 μg each) were incubated with fetal bovine serum (FBS) components at room temperature in 10 μl PC buffer for 30 min and subjected to horizontal native 8% PAGE, pH8.0 or pH8.8, and Coomassie Blue staining."}, "[1]": {"test_system": "Escherichia coli K-12 (MG1655)", "assay": "Antimicrobial (bactericidal) activity against E. coli, effect of serum or serum proteins", "format": "cell-based", "details": "5% (v/v) FBS in PBS, 37 °C; remaining viable cells (cfu)", "description": "The Gram-negative bacteria Escherichia coli K-12 (MG1655) was cultured and plated in/on Luria–Bertani broth/agar plate (Merck Millipore, Darmstadt, Germany). The Gram-positive Staphylococcus aureus (ATCC 6538P) was cultured and plated in tryptic soy broth/agar (BD, MD, USA). The fungus Candida albicans (ATCC 14,053) was cultured and plated in YM broth/agar (BD, MD, USA). The bacteria were grown overnight, washed, and diluted 1:2000 in phosphate buffered saline (PBS), pH 7.5 or DMEM (Life Biotech, California, USA), pH 7.4. Bacteria (ca. 1 × 10^6 colony-forming units, cfu) were mixed with antimicrobial peptides (AMP) in 100 μl PBS and incubated at 37 °C (for bacteria) and at 30 °C (for fungus). Serial dilutions of each AMP-treated bacteria in PBS/DMEM supplemented with FBS were prepared and plated for the determination of remaining viable cells (expressed as cfu). At least three independent experiments were performed for each assay to determine the average value with standard deviation. MBC was defined as the lowest AMP concentration that kills 99.9% of the original inoculum."}, "[2]": {"biological_target": "T1, protein B (α1-antitrypsin) (Bos taurus, UniProt P34955)", "T1 sequence (P34955 25-416)": "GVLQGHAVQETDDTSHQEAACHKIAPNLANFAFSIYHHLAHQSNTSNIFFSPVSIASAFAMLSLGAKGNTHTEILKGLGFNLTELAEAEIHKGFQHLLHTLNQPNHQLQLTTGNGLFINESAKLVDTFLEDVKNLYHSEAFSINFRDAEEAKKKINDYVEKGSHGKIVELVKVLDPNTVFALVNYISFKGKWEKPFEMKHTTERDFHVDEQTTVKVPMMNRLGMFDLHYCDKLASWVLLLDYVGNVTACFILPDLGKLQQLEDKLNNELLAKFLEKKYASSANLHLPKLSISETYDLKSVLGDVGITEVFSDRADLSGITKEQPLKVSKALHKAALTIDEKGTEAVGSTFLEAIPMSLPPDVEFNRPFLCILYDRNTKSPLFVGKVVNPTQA", "assay": "Band shift of AMPs by protein B", "format": "binding, bovine", "set-up": "The homogeneities of collected protein A (albumin), protein B (α1-antitrypsin), protein C (serotransferrin) and protein D complex; from tissue; host or cells: fetal bovine serum (70% ammonium sulfate fraction, FPLC Mono Q)", "details": "AMP 4 μg; protein 10 μg (Suppl. Fig. 3a); PC buffer, room temperature, 30 min; 8% horizontal native PAGE", "description": "as §1"}, "Apo-AI": {"test_system": "Apo-AI", "details": "cited from earlier work", "source_text": "In addition to protein D, the serum protein apolipoprotein AI (Apo-AI) was also pulled down from crude fetal bovine serum by immobilized TP4-A12I,A15I, but in a less amount (Fig. 2a). The Apo-AI with Mr = 28,080 Da is the major constituent of high-density lipoprotein (HDL), which is involved in the removal of cholesterol from peripheral tissues and its catabolism. […] The amount of Apo-A1 in fetal bovine serum was much less than that of protein D (Fig. 8a, b). Int ..."}, "[3]": {"biological_target": "T2, protein D (albumin and α1-antitrypsin complex) (Bos taurus, UniProt P02769+P34955)", "T2 construct": "The active components were further purified by fast performance liquid chromatography (FPLC) Mono Q and S12 column chromatography from the 70% saturated fraction; from tissue; host or cells: fetal bovine serum (70% ammonium sulfate fraction, FPLC Mono Q and Superose 12)", "T2 sequence (P02769 25-607, one chain of several)": "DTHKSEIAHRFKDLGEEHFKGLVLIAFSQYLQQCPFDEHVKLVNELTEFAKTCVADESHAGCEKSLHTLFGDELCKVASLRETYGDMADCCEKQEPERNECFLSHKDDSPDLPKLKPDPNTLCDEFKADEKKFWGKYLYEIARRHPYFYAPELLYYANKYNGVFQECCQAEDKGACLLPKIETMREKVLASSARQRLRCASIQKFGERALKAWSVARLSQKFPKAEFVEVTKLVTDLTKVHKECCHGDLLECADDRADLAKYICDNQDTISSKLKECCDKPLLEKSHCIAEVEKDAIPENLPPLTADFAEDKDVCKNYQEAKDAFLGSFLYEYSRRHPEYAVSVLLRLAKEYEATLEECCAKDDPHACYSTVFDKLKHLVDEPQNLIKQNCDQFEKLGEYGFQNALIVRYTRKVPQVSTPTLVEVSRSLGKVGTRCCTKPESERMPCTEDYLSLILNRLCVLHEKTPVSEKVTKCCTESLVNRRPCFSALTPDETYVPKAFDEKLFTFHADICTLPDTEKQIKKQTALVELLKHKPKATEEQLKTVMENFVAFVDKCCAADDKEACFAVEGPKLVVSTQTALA", "assay": "Band shift of AMPs by protein D", "format": "binding, bovine", "details": "AMP 4 μg; protein 10 μg (Suppl. Fig. 3a); PC buffer, room temperature, 30 min; 8% horizontal native PAGE"}}}
{"substance": "LL37: human AMP LL37 [reference compound]", "values": [{"measurement": "mobility of AMP in band shift assay with FBS", "setting": "fetal bovine serum (FBS)", "value": "retarded"}, {"measurement": "effect of FBS on antimicrobial activity against E. coli", "setting": "[1]", "value": "serum-mediated repression"}, {"measurement": "binding to protein B (band shift)", "setting": "[2]", "value": "not by protein A and protein B"}, {"measurement": "effect of Apo-AI on antimicrobial and cytotoxic activities", "setting": "Apo-AI", "value": "inhibits its antimicrobial and cytotoxic activities"}, {"measurement": "binding to protein D (band shift)", "setting": "[3]", "value": "also bound by protein D"}]}
